Results as given in doi:10.1101/2021.02.09.429966 (bioRxiv, 2021).

Target: Clumping factor A (ClfA) on S. aureus LACΔspaΔsbi (Staphylococcus aureus USA300 LAC Δspa, …, UniProt A0A0H2XG16)
Experiment: flow cytometry on cells

binding result: binds
B1: T1-2-IgG1 (antibody, V domains shown)
VH: QVQLKESGPGLVAPSQSLSITCAISGFSLSRYSVHWVRQPPGKGLEWLGMIWGGGNTDYNSALKSRLSISKDNSKSQVFLKMNSLQTDDTAMYYCARKGEFYYGYDGFVYWGQGTLVTVSA
VL: NIMMTQSPSSLAVSAGEKVTMSCKSSQSVLYSSNQKNYLAWYQQKPGQSPKLLIYWASTRESGVPDRFTGSGSGTDFTLTISSVQAEDLAVYYCHQYLSSYTFGGGTKLEIK
